Assay results as given in IntAct's records for PubMed 29892012.

B1: Abl interactor 2 (Homo sapiens), Q9NYB9 (parent)
chain: MAELQMLLEEEIPGGRRALFDSYTNLERVADYCENNYIQSADKQRALEETKAYTTQSLASVAYLINTLANNVLQMLDIQASQLRRMESSINHISQTVDIHKEKVARREIGILTTNKNTSRTHKIIAPANLERPVRYIRKPIDYTILDDIGHGVKWLLRFKVSTQNMKMGGLPRTTPPTQKPPSPPMSGKGTLGRHSPYRTLEPVRPPVVPNDYVPSPTRNMAPSQQSPVRTASVNQRNRTYSSSGSSGGSHPSSRSSSRENSGSGSVGVPIAVPTPSPPSVFPAPAGSAGTPPLPATSASAPAPLVPATVPSSTAPNAAAGGAPNLADGFTSPTPPVVSSTPPTGHPVQFYSMNRPASRHTPPTIGGSLPYRRPPSITSQTSLQNQMNGGPFYSQNPVSDTPPPPPPVEEPVFDESPPPPPPPEDYEEEEAAVVEYSDPYAEEDPPWAPRSYLEKVVAIYDYTKDKEDELSFQEGAIIYVIKKNDDGWYEGVMNGVTGLFPGNYVESIMHYSE
B2: Protein SSX5 (Homo sapiens), O60225 (parent)
chain: MNGDDAFVRRPRVGSQIPEKMQKAFDDIAKYFSEKEWEKMKASEKIIYVYMKRKYEAMTKLGFKATLPPFMRNKRVADFQGNDFDNDPNRGNQVEHPQMTFGRLQGIFPKITPEKPAEEGNDSKGVPEASGPQNNGKQLRPSGKLNTSEKVNKTSGPKRGKHAWTHRVRERKQLVIYEEISDPQEDDE
partner: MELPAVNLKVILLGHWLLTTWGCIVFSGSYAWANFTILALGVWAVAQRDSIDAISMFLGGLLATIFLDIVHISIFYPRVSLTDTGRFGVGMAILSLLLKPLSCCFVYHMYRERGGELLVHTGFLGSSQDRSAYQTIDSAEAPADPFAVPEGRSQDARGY
B3: Abl interactor 2 (Homo sapiens), Q9NYB9 (parent)
chain: B1 chain
partner: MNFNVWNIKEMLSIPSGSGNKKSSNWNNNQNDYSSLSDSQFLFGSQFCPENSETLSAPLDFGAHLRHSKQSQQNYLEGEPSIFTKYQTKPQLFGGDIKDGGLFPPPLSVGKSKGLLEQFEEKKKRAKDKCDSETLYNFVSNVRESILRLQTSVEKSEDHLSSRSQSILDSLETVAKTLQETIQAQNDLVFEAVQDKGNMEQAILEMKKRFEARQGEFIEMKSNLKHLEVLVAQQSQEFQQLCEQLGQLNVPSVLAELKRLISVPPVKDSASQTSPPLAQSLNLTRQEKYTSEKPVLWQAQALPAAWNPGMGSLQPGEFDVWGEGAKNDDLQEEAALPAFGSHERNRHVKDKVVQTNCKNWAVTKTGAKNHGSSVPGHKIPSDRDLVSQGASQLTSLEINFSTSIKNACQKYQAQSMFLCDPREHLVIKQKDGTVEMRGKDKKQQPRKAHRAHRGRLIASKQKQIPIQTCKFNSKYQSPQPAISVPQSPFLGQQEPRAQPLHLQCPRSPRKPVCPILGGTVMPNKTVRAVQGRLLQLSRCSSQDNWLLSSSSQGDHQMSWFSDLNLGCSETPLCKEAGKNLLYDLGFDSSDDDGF
B4: RNA-binding protein 3 (Homo sapiens), P98179 (parent)
chain: MSSEEGKLFVGGLNFNTDEQALEDHFSSFGPISEVVVVKDRETQRSRGFGFITFTNPEHASVAMRAMNGESLDGRQIRVDHAGKSARGTRGGGFGAHGRGRSYSRGGGDQGYGSGRYYDSRPGGYGYGYGRSRDYNGRNQGGYDRYSGGNYRDNYDN
B5: Abl interactor 2 (Homo sapiens), Q9NYB9 (parent)
chain: B1 chain
partner: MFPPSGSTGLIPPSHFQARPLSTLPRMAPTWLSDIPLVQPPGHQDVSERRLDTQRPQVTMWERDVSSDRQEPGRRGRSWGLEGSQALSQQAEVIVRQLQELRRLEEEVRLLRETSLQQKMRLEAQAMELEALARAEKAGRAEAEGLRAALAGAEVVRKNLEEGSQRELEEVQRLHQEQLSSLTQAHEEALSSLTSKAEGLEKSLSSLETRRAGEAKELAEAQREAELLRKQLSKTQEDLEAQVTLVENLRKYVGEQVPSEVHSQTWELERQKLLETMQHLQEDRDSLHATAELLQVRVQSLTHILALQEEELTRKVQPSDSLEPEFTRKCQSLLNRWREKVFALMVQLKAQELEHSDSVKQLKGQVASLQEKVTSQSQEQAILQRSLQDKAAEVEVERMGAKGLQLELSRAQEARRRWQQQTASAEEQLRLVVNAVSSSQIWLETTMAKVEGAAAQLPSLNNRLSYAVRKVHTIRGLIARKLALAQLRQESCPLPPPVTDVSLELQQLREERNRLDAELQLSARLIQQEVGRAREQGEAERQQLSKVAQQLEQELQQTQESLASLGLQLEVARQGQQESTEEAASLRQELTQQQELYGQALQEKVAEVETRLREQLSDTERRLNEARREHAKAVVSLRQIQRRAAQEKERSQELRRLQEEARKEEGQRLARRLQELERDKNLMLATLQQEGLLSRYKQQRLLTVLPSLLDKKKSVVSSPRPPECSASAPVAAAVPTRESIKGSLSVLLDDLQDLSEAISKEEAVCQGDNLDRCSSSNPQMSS
B6: RNA-binding protein 3 (Homo sapiens), P98179 (parent)
chain: B4 chain
partner: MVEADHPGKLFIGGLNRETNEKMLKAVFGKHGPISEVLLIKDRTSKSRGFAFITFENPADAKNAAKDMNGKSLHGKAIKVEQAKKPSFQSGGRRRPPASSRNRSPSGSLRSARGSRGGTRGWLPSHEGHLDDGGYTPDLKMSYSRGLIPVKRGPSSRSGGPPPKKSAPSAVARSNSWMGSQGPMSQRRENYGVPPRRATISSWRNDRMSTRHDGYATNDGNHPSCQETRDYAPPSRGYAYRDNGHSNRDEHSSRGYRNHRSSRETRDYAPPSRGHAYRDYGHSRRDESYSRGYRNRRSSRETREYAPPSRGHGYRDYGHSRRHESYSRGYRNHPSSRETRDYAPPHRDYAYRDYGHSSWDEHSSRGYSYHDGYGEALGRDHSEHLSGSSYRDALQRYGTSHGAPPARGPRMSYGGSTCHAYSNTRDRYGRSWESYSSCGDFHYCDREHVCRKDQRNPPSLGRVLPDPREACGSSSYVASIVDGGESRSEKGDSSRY
B7: Galectin-8 (Homo sapiens), O00214 (parent)
chain: MMLSLNNLQNIIYNPVIPFVGTIPDQLDPGTLIVIRGHVPSDADRFQVDLQNGSSMKPRADVAFHFNPRFKRAGCIVCNTLINEKWGREEITYDTPFKREKSFEIVIMVLKDKFQVAVNGKHTLLYGHRIGPEKIDTLGIYGKVNIHSIGFSFSSDLQSTQASSLELTEISRENVPKSGTPQLRLPFAARLNTPMGPGRTVVVKGEVNANAKSFNVDLLAGKSKDIALHLNPRLNIKAFVRNSFLQESWGEEERNITSFPFSPGMYFEMIIYCDVREFKVAVNGVHSLEYKHRFKELSSIDTLEINGDIHLLEVRSW
B8: Consortin (Homo sapiens), Q6PJW8 (parent)
chain: MDDSDTPTYYLQIEPQDGCHPGDSVERSVTCLPSASDENENQLDGDGHEHLTSSDSAMGKPQVSEQDSLNNNESCTLSCEVAAGENLQNTLCEASRDEQAFLGKDKKIPGKRSPRSKKGTAKKIPPGLFSGDIAPLMQEKVLSAVTYAVDDEEAAEVNANEQPEAPKLVLQSLFSLIRGEVEQLDSRALPLCLHQIAESYFQEEDYEKAMKFIQLERLYHEQLLANLSAIQEQWETKWKTVQPHTVTALRNSEKGFNGEDFERLTKICATHQDPLLSKHKIAAVEKSQERKCSTQLLVSEDPKEGGATTKESESKTCLGTESSKESQHTVEPLGSSPCCHQMDVQTDSPSLSVTAGKDHMEELLCSAEATLALHTQSSETAGSPSGPDSSEDACEDDSRLQLAQTEACQDVARIEGIAEDPKVFLSSKSKTEPLISPGCDRIPPALISEGKYSQAQRKELRLPLRDASEALPTDQLENNELNELQQPDLTDSDGKSPQAQADSDGSENVLCGNNQISDLGILLPEVCMAPEEKGDKDDQLNKETEDYLNSLLEGCLKDTEDSLSYEDNQDDDSDLLQDLSPEEASYSLQENLPSDESCLSLDDLAKRIEIAEVVPTEGLVSILKKRNDTVGDHPAQMQHKPSKRRVRFQEIDDSLDQDEVGGGSCILLVLLCIATVFLSVGGTALYCTFGDMESPVCTDFADNMDFYYTKLLQGVAELKHWIYLS

Variants of: B1
Conditions: with ift20_human IFT20, Q8IY31

effect of a mutation on the interaction	Variant
with no effect	E202K

Variants of: B1
Conditions: with wipf1_human WIPF1, O43516
Sequence of wipf1_human WIPF1, O43516 (O43516 whole entry): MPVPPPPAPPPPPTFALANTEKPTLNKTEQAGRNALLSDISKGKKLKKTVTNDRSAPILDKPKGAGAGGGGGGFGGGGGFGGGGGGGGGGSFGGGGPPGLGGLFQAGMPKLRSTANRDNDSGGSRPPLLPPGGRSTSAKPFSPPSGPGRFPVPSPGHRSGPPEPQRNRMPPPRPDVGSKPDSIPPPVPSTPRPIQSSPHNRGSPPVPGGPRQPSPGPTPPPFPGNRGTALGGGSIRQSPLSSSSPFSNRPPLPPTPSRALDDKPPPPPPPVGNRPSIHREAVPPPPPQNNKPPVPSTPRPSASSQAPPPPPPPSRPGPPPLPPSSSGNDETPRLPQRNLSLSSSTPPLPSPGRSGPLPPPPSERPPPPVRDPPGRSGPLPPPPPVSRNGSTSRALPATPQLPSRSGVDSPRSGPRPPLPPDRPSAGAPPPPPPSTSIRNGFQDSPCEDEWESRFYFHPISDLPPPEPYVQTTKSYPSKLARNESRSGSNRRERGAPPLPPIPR

effect of a mutation on the interaction	Variant
with no effect	E202K

Variants of: B1
Conditions: with k1h1_human KRT31, Q15323
Sequence of k1h1_human KRT31, Q15323 (Q15323 whole entry): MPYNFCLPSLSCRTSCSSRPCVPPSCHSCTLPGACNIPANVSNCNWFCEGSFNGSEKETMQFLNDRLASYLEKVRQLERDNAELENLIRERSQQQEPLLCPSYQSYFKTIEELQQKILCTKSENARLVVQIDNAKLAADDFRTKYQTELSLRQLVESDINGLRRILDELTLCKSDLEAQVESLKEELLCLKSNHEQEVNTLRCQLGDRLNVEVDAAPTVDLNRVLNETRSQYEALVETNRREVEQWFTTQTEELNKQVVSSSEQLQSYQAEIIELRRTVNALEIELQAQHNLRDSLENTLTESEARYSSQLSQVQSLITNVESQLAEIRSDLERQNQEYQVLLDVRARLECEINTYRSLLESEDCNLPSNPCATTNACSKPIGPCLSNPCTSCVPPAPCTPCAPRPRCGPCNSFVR

effect of a mutation on the interaction	Variant
with no effect	E202K

Variants of: B1
Conditions: with aapk2_human PRKAA2, P54646
Sequence of aapk2_human PRKAA2, P54646 (P54646 whole entry, looked up): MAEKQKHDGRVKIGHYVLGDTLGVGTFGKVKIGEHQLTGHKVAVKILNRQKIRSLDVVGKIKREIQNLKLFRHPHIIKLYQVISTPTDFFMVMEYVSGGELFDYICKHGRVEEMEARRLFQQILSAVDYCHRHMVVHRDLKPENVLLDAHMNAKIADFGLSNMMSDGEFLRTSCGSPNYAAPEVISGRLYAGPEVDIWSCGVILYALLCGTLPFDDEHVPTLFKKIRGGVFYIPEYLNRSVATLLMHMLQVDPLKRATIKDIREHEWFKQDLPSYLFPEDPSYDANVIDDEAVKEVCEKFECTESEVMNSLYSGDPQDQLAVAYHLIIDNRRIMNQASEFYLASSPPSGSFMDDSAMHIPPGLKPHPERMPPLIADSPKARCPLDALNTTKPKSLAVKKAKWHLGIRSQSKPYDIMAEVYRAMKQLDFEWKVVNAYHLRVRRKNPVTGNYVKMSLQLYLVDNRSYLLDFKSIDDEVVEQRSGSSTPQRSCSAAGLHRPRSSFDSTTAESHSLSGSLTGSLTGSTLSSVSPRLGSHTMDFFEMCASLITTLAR

effect of a mutation on the interaction	Variant
with no effect	E202K

Variants of: B1
Conditions: with skt_human KIAA1217, Q5T5P2

effect of a mutation on the interaction	Variant
with no effect	E202K

Variants of: B1
Conditions: with aapk1_human PRKAA1, Q13131
Sequence of aapk1_human PRKAA1, Q13131 (Q13131 whole entry, looked up): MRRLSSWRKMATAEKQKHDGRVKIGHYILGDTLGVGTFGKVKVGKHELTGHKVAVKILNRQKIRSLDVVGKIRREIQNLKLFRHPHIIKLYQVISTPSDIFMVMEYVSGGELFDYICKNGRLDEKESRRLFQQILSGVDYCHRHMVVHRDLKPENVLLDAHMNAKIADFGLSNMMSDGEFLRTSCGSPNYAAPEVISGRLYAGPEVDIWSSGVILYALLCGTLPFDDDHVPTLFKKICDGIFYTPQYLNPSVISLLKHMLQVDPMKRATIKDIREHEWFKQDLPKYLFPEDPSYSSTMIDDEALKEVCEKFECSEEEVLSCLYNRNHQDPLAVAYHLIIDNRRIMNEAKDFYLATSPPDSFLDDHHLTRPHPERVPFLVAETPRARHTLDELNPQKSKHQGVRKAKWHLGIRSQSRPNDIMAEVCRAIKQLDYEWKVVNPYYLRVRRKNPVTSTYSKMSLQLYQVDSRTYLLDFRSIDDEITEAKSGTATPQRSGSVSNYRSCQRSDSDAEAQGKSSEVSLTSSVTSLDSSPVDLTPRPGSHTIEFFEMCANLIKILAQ

effect of a mutation on the interaction	Variant
with no effect	E202K

Variants of: B1
Conditions: with eif3h_human EIF3H

effect of a mutation on the interaction	Variant
with no effect	E202K

Variants of: B1
Conditions: with hnrpk_human HNRNPK

effect of a mutation on the interaction	Variant
with no effect	E202K

Variants of: B1
Conditions: with tri32_human TRIM32, Q13049
Sequence of tri32_human TRIM32, Q13049 (Q13049 whole entry): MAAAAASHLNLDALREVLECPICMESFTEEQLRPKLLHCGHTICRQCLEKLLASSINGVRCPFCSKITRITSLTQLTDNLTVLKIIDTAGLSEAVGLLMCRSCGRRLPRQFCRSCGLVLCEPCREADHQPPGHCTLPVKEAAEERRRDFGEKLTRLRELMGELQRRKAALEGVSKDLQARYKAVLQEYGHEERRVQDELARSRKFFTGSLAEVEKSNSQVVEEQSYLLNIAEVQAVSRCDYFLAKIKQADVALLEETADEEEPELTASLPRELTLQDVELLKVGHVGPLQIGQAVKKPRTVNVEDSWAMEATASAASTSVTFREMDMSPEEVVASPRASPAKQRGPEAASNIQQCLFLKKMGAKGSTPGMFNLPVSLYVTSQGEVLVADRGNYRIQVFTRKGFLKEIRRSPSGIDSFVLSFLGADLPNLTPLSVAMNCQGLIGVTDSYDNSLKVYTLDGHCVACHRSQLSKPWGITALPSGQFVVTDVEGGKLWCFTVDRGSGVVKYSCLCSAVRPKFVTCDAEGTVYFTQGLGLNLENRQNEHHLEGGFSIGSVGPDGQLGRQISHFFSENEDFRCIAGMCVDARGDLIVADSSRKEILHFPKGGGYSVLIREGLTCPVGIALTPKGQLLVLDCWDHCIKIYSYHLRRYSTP

effect of a mutation on the interaction	Variant
with no effect	E202K

Variants of: B1
Conditions: with vasp_human VASP

effect of a mutation on the interaction	Variant
with no effect	E202K

Variants of: B1
Conditions: with ppif_human PPIF

effect of a mutation on the interaction	Variant
with no effect	E202K

Variants of: B1
Conditions: with KRT15, P19012
Sequence of KRT15, P19012 (P19012 whole entry): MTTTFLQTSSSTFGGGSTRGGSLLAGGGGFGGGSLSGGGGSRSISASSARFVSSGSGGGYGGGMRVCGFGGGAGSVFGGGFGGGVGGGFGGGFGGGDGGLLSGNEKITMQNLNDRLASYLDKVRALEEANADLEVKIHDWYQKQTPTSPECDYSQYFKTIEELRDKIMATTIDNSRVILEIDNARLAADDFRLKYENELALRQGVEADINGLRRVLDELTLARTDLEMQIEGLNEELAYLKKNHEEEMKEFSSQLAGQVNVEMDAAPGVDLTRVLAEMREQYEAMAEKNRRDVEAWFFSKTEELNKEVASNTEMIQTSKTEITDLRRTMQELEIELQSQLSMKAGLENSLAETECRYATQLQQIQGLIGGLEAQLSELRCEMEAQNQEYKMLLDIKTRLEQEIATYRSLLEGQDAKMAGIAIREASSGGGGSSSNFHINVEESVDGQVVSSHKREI

effect of a mutation on the interaction	Variant
with no effect	E202K

Variants of: B1
Conditions: with nup62_human NUP62, P37198
Sequence of nup62_human NUP62, P37198 (P37198 whole entry): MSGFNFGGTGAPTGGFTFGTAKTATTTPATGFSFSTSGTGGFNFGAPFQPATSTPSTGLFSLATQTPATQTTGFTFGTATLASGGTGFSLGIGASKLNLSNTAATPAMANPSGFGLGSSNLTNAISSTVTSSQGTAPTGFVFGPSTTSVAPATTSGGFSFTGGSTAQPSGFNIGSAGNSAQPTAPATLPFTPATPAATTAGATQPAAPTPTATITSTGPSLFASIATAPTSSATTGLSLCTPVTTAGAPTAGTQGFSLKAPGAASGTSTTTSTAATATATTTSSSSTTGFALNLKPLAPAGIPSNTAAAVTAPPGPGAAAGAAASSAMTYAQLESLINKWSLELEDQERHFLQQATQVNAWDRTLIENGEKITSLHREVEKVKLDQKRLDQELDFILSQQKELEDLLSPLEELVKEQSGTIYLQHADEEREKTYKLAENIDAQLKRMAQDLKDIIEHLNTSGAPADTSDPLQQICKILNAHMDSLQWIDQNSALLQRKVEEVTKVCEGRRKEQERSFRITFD

effect of a mutation on the interaction	Variant
with no effect	E202K

Variants of: B1
Conditions: with KRT19, P08727

effect of a mutation on the interaction	Variant
with no effect	E202K

Variants of: B1
Conditions: with rhg32_human ARHGAP32, A7KAX9

effect of a mutation on the interaction	Variant
with no effect	E202K

Variants of: B1
Conditions: with nck2_human NCK2, O43639
Sequence of nck2_human NCK2, O43639 (O43639 whole entry): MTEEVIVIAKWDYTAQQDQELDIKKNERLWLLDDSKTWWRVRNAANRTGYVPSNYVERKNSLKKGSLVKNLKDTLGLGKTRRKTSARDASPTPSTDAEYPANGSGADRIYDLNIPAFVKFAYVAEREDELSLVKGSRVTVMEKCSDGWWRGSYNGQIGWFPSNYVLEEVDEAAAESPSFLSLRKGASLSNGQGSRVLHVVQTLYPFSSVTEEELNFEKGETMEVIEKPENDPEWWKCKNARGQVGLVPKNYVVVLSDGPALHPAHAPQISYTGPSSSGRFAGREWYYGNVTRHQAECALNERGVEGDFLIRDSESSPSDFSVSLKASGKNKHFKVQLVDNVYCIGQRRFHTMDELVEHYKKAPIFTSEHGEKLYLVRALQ

effect of a mutation on the interaction	Variant
with no effect	E202K

Variants of: B1
Conditions: with hgs_human HGS

effect of a mutation on the interaction	Variant
with no effect	E202K

Variants of: B1
Conditions: with pcm1_human PCM1, Q15154

effect of a mutation on the interaction	Variant
with no effect	E202K

Variants of: B1
Conditions: with stam2_human STAM2, O75886

effect of a mutation on the interaction	Variant
with no effect	E202K

Variants of: B1
Conditions: with vinc_human VCL

effect of a mutation on the interaction	Variant
disrupting interaction strength	E202K

Variants of: B1
Conditions: with crx_human CRX

effect of a mutation on the interaction	Variant
with no effect	E202K

Variants of: B1
Conditions: with mr1l1_human MRFAP1L1, Q96HT8
Sequence of mr1l1_human MRFAP1L1, Q96HT8 (Q96HT8 whole entry): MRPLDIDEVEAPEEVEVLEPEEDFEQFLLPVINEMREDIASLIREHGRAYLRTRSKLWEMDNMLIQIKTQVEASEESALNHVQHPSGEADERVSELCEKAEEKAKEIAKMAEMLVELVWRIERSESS

effect of a mutation on the interaction	Variant
disrupting interaction strength	E202K

Variants of: B1
Conditions: with sdcb1_human SDCBP

effect of a mutation on the interaction	Variant
disrupting interaction strength	E202K

Variants of: B1
Conditions: with efs_human EFS

effect of a mutation on the interaction	Variant
with no effect	E202K

Variants of: B2
Conditions: with atrap_human AGTRAP

effect of a mutation on the interaction	Variant
disrupting interaction strength	K54R

Variants of: B3
Conditions: with iho1_human IHO1, Q8IYA8

effect of a mutation on the interaction	Variant
with no effect	R373C

Variants of: B3
Conditions: with iho1_human IHO1, Q8IYA8
Remark: another data set of the same source

effect of a mutation on the interaction	Variant
with no effect	E202K

Variants of: B4
Conditions: with snrpa_human SNRPA

effect of a mutation on the interaction	Variant
with no effect	R145H

Variants of: B4
Conditions: with rbmx_human RBMX

effect of a mutation on the interaction	Variant
with no effect	R145H

Variants of: B5
Conditions: with cchcr_human CCHCR1, Q8TD31

Variant	effect of a mutation on the interaction
E202K	with no effect

Variants of: B6
Conditions: with rby1a_human RBMY1A1, P0DJD3

effect of a mutation on the interaction	Variant
with no effect	R145H

Variants of: B7
Conditions: with taxb1_human TAX1BP1, Q86VP1
Sequence of taxb1_human TAX1BP1, Q86VP1 (Q86VP1 whole entry): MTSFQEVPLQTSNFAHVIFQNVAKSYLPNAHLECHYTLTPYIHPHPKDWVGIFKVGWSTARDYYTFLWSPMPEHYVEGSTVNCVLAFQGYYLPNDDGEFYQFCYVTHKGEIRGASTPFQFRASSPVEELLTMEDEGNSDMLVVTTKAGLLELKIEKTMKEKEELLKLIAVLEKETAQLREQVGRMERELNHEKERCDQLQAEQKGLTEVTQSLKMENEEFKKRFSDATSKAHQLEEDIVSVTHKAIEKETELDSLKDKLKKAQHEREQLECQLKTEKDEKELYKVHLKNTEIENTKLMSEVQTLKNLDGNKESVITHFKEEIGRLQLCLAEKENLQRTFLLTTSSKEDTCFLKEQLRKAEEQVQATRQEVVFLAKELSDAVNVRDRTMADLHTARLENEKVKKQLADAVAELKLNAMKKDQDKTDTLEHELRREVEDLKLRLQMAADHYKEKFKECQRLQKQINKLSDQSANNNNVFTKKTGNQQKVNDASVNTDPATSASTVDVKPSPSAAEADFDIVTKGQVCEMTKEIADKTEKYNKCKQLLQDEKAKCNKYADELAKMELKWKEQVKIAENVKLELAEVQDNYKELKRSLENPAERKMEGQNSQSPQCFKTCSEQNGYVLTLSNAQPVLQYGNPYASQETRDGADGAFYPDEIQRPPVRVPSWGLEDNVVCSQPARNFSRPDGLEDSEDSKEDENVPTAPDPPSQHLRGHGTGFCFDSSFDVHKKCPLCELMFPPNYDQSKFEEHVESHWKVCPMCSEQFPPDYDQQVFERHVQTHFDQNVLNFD

effect of a mutation on the interaction	Variant
with no effect	P194T

Variants of: B8
Conditions: with rop1a_human ROPN1, Q9HAT0

effect of a mutation on the interaction	Variant
disrupting interaction strength	V25M
